Experimental data reported in PMC10954123.

Key:
[1] = molecular target: His6x-MotE (mature form of MotE of Cereibacter sphaeroides) (Cereibacter sphaeroides); test: non-reducing SDS-PAGE; purified His6x-MotE, loading buffer without or with beta-mercaptoethanol, Coomassie blue stain; monomer to disulfide-linked dimer
[2] = molecular target: MotE, endogenous in Cereibacter sphaeroides AM1 (Cereibacter sphaeroides (endogenous in AM1)); test: non-reducing SDS-PAGE; total cell extracts of AM1 prepared without or with beta-mercaptoethanol, immunodetection with anti-MotE; monomer to disulfide-linked dimer

Row | stoichiometry N [1] | stoichiometry N [2] | Substance
1 | 2 |  | His6x-MotE (mature form of MotE of Cereibacter sphaeroides) (natural protein)
2 |  | 2 | MotE, endogenous in Cereibacter sphaeroides AM1 (natural protein)
